Reference: publication PMC8539640

What was measured:
[1] = target: Bam35 P19t (P19 without its predicted transmembrane domain), bait pBN_19t (Bacillus virus Bam35); experiment: two-hybrid
[2] = target: Bam35 P22 (special vertex, suggested), bait pBN_22 (Bacillus virus Bam35); experiment: two-hybrid; pairwise Y2H: Bam35 ORF baits (pBC or pBN) against full-length HER1410 ORF preys (pPC or pPN); HIS3 reporter, -LWH with 0, 0.025, 0.1, 3, 10, 25, 50 and 100 mM 3AT; positive when growth was higher than in the self-activation controls with the empty vectors
[3] = target: Bam35 P26 (transglycosylase and integral membrane scaffolding, suggested), bait pBN_26 (Bacillus virus Bam35); experiment: two-hybrid

“B. thuringiensis HER1410 OmpR, full length, prey pPC_ompR(22050) (natural protein)” showed an other [1] of 100 mM.

Substance “B. thuringiensis HER1410 YadS, full length, prey pPC_yadS(28175) (natural protein)” has a Max. 3AT (mM) (B35ORF BtORF) [2] of 50 mM.

With “B. thuringiensis HER1410 protein of locus 16200, full length, prey pPC_(16200) (natural protein)” the Max. 3AT (mM) (B35ORF BtORF) [3] was 3 mM.
